# B1: TRAF-1 (other, UniProt Q13077 1-416, looked up)
# chain: MASSSGSSPRPAPDENEFPFGCPPTVCQDPKEPRALCCAGCLSENPRNGEDQICPKCRGEDLQSISPGSRLRTQEKAHPEVAEAGIGCPFAGVGCSFKGSPQSVQEHEVTSQTSHLNLLLGFMKQWKARLGCGLESGPMALEQNLSDLQLQAAVEVAGDLEVDCYRAPCSESQEELALQHFMKEKLLAELEGKLRVFENIVAVLNKEVEASHLALATSIHQSQLDRERILSLEQRVVELQQTLAQKDQALGKLEQSLRLMEEASFDGTFLWKITNVTRRCHESACGRTVSLFSPAFYTAKYGYKLCLRLYLNGDGTGKRTHLSLFIVIMRGEYDALLPWPFRNKVTFMLLDQNNREHAIDAFRPDLSSASFQRPQSETNVASGCPLFFPLSKLQSPKHAYVKDDTMFLKCIVETST
# notes: Construct and tag not described
# B2: IKKα (enzyme, UniProt O15111 1-745, looked up)
# chain: MERPPGLRPGAGGPWEMRERLGTGGFGNVCLYQHRELDLKIAIKSCRLELSTKNRERWCHEIQIMKKLNHANVVKACDVPEELNILIHDVPLLAMEYCSGGDLRKLLNKPENCCGLKESQILSLLSDIGSGIRYLHENKIIHRDLKPENIVLQDVGGKIIHKIIDLGYAKDVDQGSLCTSFVGTLQYLAPELFENKPYTATVDYWSFGTMVFECIAGYRPFLHHLQPFTWHEKIKKKDPKCIFACEEMSGEVRFSSHLPQPNSLCSLVVEPMENWLQLMLNWDPQQRGGPVDLTLKQPRCFVLMDHILNLKIVHILNMTSAKIISFLLPPDESLHSLQSRIERETGINTGSQELLSETGISLDPRKPASQCVLDGVRGCDSYMVYLFDKSKTVYEGPFASRSLSDCVNYIVQDSKIQLPIIQLRKVWAEAVHYVSGLKEDYSRLFQGQRAAMLSLLRYNANLTKMKNTLISASQQLKAKLEFFHKSIQLDLERYSEQMTYGISSEKMLKAWKEMEEKAIHYAEVGVIGYLEDQIMSLHAEIMELQKSPYGRRQGDLMESLEQRAIDLYKQLKHRPSDHSYSDSTEMVKIIVHTVQSQDRVLKELFGHLSKLLGCKQKIIDLLPKVEVALSNIKEADNTVMFMQGKRQKEIWHLLKIACTQSSARSLVGSSLEGAVTPQTSAWLPPTSAEHDHSLSCVVTPQDGETSAQMIEENLNCLGHLSTIIHEANEEQGNSMMNLDWSWLTE
# notes: Construct and tag not described for this test
# B3: TRAF-6 (other, UniProt Q9Y4K3 1-522, looked up)
# chain: MSLLNCENSCGSSQSESDCCVAMASSCSAVTKDDSVGGTASTGNLSSSFMEEIQGYDVEFDPPLESKYECPICLMALREAVQTPCGHRFCKACIIKSIRDAGHKCPVDNEILLENQLFPDNFAKREILSLMVKCPNEGCLHKMELRHLEDHQAHCEFALMDCPQCQRPFQKFHINIHILKDCPRRQVSCDNCAASMAFEDKEIHDQNCPLANVICEYCNTILIREQMPNHYDLDCPTAPIPCTFSTFGCHEKMQRNHLARHLQENTQSHMRMLAQAVHSLSVIPDSGYISEVRNFQETIHQLEGRLVRQDHQIRELTAKMETQSMYVSELKRTIRTLEDKVAEIEAQQCNGIYIWKIGNFGMHLKCQEEEKPVVIHSPGFYTGKPGYKLCMRLHLQLPTAQRCANYISLFVHTMQGEYDSHLPWPFQGTIRLTILDQSEAPVRQNHEEIMDAKPELLAFQRPTIPRNPKGFGYVTFMHLEALRQRTFIKDDTLLVRCEVSTRFDMGSLRREGFQPRSTDAGV
# notes: as for B1
# B4: TRADD (other, UniProt Q15628 1-312, looked up)
# chain: MAAGQNGHEEWVGSAYLFVESSLDKVVLSDAYAHPQQKVAVYRALQAALAESGGSPDVLQMLKIHRSDPQLIVQLRFCGRQPCGRFLRAYREGALRAALQRSLAAALAQHSVPLQLELRAGAERLDALLADEERCLSCILAQQPDRLRDEELAELEDALRNLKCGSGARGGDGEVASAPLQPPVPSLSEVKPPPPPPPAQTFLFQGQPVVNRPLSLKDQQTFARSVGLKWRKVGRSLQRGCRALRDPALDSLAYEYEREGLYEQAFQLLRRFVQAEGRRATLQRLVEALEENELTSLAEDLLGLTDPNGGLA
# notes: as for B1
# B5: Ced-4 (other, UniProt P30429 1-549, looked up)
# chain: MLCEIECRALSTAHTRLIHDFEPRDALTYLEGKNIFTEDHSELISKMSTRLERIANFLRIYRRQASELGPLIDFFNYNNQSHLADFLEDYIDFAINEPDLLRPVVIAPQFSRQMLDRKLLLGNVPKQMTCYIREYHVDRVIKKLDEMCDLDSFFLFLHGRAGSGKSVIASQALSKSDQLIGINYDSIVWLKDSGTAPKSTFDLFTDILLMLKSEDDLLNFPSVEHVTSVVLKRMICNALIDRPNTLFVFDDVVQEETIRWAQELRLRCLVTTRDVEISNAASQTCEFIEVTSLEIDECYDFLEAYGMPMPVGEKEEDVLNKTIELSSGNPATLMMFFKSCEPKTFEKMAQLNNKLESRGLVGVECITPYSYKSLAMALQRCVEVLSDEDRSALAFAVVMPPGVDIPVKLWSCVIPVDICSNEEEQLDDEVADRLKRLSKRGALLSGKRMPVLTFKIDHIIHMFLKHVVDAQTIANGISILEQRLLEIGNNNVSVPERHIPSHFQKFRRSSASEMYPKTTEETVIRPEDFPKFMQLHQKFYDSLKNFACC
# notes: as for B1
# B6: caspase-1 (enzyme, UniProt P29466 1-404, looked up)
# chain: MADKVLKEKRKLFIRSMGEGTINGLLDELLQTRVLNKEEMEKVKRENATVMDKTRALIDSVIPKGAQACQICITYICEEDSYLAGTLGLSADQTSGNYLNMQDSQGVLSSFPAPQAVQDNPAMPTSSGSEGNVKLCSLEEAQRIWKQKSAEIYPIMDKSSRTRLALIICNEEFDSIPRRTGAEVDITGMTMLLQNLGYSVDVKKNLTASDMTTELEAFAHRPEHKTSDSTFLVFMSHGIREGICGKKHSEQVPDILQLNAIFNMLNTKNCPSLKDKPKVIIIQACRGDSPGVVWFKDSVGVSGNLSLPTTEEFEDDAIKKAHIEKDFIAFCSSTPDNVSWRHPTMGSVFIGRLIEHMQEYACSCDVEEIFRKVRFSFEQPDGRAQMPTTERVTLTRCFYLFPGH
# notes: as for B1
# B7: RIP (enzyme, UniProt Q13546 1-671, looked up)
# chain: MQPDMSLNVIKMKSSDFLESAELDSGGFGKVSLCFHRTQGLMIMKTVYKGPNCIEHNEALLEEAKMMNRLRHSRVVKLLGVIIEEGKYSLVMEYMEKGNLMHVLKAEMSTPLSVKGRIILEIIEGMCYLHGKGVIHKDLKPENILVDNDFHIKIADLGLASFKMWSKLNNEEHNELREVDGTAKKNGGTLYYMAPEHLNDVNAKPTEKSDVYSFAVVLWAIFANKEPYENAICEQQLIMCIKSGNRPDVDDITEYCPREIISLMKLCWEANPEARPTFPGIEEKFRPFYLSQLEESVEEDVKSLKKEYSNENAVVKRMQSLQLDCVAVPSSRSNSATEQPGSLHSSQGLGMGPVEESWFAPSLEHPQEENEPSLQSKLQDEANYHLYGSRMDRQTKQQPRQNVAYNREEERRRRVSHDPFAQQRPYENFQNTEGKGTAYSSAASHGNAVHQPSGLTSQPQVLYQNNGLYSSHGFGTRPLDPGTAGPRVWYRPIPSHMPSLHNIPVPETNYLGNTPTMPFSSLPPTDESIKYTIYNSTGIQIGAYNYMEIGGTSSSLLDSTNTNFKEEPAAKYQAIFDNTTSLTDKHLDPIRENLGKHWKNCARKLGFTQSQIDEIDHDYERDGLKEKVYQMLQKWVMREGIKGATVGKLAQALHQCSRIDLLSSLIYVSQN
# notes: as for B2
# B8: NIK (enzyme, UniProt Q99558 1-947, looked up)
# chain: MAVMEMACPGAPGSAVGQQKELPKAKEKTPPLGKKQSSVYKLEAVEKSPVFCGKWEILNDVITKGTAKEGSEAGPAAISIIAQAECENSQEFSPTFSERIFIAGSKQYSQSESLDQIPNNVAHATEGKMARVCWKGKRRSKARKKRKKKSSKSLAHAGVALAKPLPRTPEQESCTIPVQEDESPLGAPYVRNTPQFTKPLKEPGLGQLCFKQLGEGLRPALPRSELHKLISPLQCLNHVWKLHHPQDGGPLPLPTHPFPYSRLPHPFPFHPLQPWKPHPLESFLGKLACVDSQKPLPDPHLSKLACVDSPKPLPGPHLEPSCLSRGAHEKFSVEEYLVHALQGSVSSGQAHSLTSLAKTWAARGSRSREPSPKTEDNEGVLLTEKLKPVDYEYREEVHWATHQLRLGRGSFGEVHRMEDKQTGFQCAVKKVRLEVFRAEELMACAGLTSPRIVPLYGAVREGPWVNIFMELLEGGSLGQLVKEQGCLPEDRALYYLGQALEGLEYLHSRRILHGDVKADNVLLSSDGSHAALCDFGHAVCLQPDGLGKSLLTGDYIPGTETHMAPEVVLGRSCDAKVDVWSSCCMMLHMLNGCHPWTQFFRGPLCLKIASEPPPVREIPPSCAPLTAQAIQEGLRKEPIHRVSAAELGGKVNRALQQVGGLKSPWRGEYKEPRHPPPNQANYHQTLHAQPRELSPRAPGPRPAEETTGRAPKLQPPLPPEPPEPNKSPPLTLSKEESGMWEPLPLSSLEPAPARNPSSPERKATVPEQELQQLEIELFLNSLSQPFSLEEQEQILSCLSIDSLSLSDDSEKNPSKASQSSRDTLSSGVHSWSSQAEARSSSWNMVLARGRPTDTPSYFNGVKVQIQSLNGEHLHIREFHRVKVGDIATGISSQIPAAAFSLVTKDGQPVRYDMEVPDSGIDLQCTLAPDGSFAWSWRVKHGQLENRP
# notes: as for B1
# B9: IKKβ (enzyme, UniProt O14920 1-756, looked up)
# chain: MSWSPSLTTQTCGAWEMKERLGTGGFGNVIRWHNQETGEQIAIKQCRQELSPRNRERWCLEIQIMRRLTHPNVVAARDVPEGMQNLAPNDLPLLAMEYCQGGDLRKYLNQFENCCGLREGAILTLLSDIASALRYLHENRIIHRDLKPENIVLQQGEQRLIHKIIDLGYAKELDQGSLCTSFVGTLQYLAPELLEQQKYTVTVDYWSFGTLAFECITGFRPFLPNWQPVQWHSKVRQKSEVDIVVSEDLNGTVKFSSSLPYPNNLNSVLAERLEKWLQLMLMWHPRQRGTDPTYGPNGCFKALDDILNLKLVHILNMVTGTIHTYPVTEDESLQSLKARIQQDTGIPEEDQELLQEAGLALIPDKPATQCISDGKLNEGHTLDMDLVFLFDNSKITYETQISPRPQPESVSCILQEPKRNLAFFQLRKVWGQVWHSIQTLKEDCNRLQQGQRAAMMNLLRNNSCLSKMKNSMASMSQQLKAKLDFFKTSIQIDLEKYSEQTEFGITSDKLLLAWREMEQAVELCGRENEVKLLVERMMALQTDIVDLQRSPMGRKQGGTLDDLEEQARELYRRLREKPRDQRTEGDSQEMVRLLLQAIQSFEKKVRVIYTQLSKTVVCKQKALELLPKVEEVVSLMNEDEKTVVRLQEKRQKELWNLLKIACSKVRGPVSGSPDSMNASRLSQPGQLMSQPSTASNSLPEPAKKSEELVAEAHNLCTLLENAIQDTVREQDQSFTALDWSWLQTEEEEHSCLEQAS
# notes: as for B2
# B10: TRAF-2 (other, UniProt Q12933 1-501, looked up)
# chain: MAAASVTPPGSLELLQPGFSKTLLGTKLEAKYLCSACRNVLRRPFQAQCGHRYCSFCLASILSSGPQNCAACVHEGIYEEGISILESSSAFPDNAARREVESLPAVCPSDGCTWKGTLKEYESCHEGRCPLMLTECPACKGLVRLGEKERHLEHECPERSLSCRHCRAPCCGADVKAHHEVCPKFPLTCDGCGKKKIPREKFQDHVKTCGKCRVPCRFHAIGCLETVEGEKQQEHEVQWLREHLAMLLSSVLEAKPLLGDQSHAGSELLQRCESLEKKTATFENIVCVLNREVERVAMTAEACSRQHRLDQDKIEALSSKVQQLERSIGLKDLAMADLEQKVLEMEASTYDGVFIWKISDFARKRQEAVAGRIPAIFSPAFYTSRYGYKMCLRIYLNGDGTGRGTHLSLFFVVMKGPNDALLRWPFNQKVTLMLLDQNNREHVIDAFRPDVTSSSFQRPVNDMNIASGCPLFCPVSKMEAKNSYVRDDAIFIKAIVDLTGL
# notes: as for B1
# Biological target: T1, HA-tagged wild-type Nod2 (human, UniProt Q9HC29 1-1040)
# T1 construct: Expressed by transfection in HEK293T cells and tested in cell lysates; also called wt Nod2; pcDNA3-Nod2-HA; not shown: HA tag
# T1 sequence (Q9HC29 whole entry R703H): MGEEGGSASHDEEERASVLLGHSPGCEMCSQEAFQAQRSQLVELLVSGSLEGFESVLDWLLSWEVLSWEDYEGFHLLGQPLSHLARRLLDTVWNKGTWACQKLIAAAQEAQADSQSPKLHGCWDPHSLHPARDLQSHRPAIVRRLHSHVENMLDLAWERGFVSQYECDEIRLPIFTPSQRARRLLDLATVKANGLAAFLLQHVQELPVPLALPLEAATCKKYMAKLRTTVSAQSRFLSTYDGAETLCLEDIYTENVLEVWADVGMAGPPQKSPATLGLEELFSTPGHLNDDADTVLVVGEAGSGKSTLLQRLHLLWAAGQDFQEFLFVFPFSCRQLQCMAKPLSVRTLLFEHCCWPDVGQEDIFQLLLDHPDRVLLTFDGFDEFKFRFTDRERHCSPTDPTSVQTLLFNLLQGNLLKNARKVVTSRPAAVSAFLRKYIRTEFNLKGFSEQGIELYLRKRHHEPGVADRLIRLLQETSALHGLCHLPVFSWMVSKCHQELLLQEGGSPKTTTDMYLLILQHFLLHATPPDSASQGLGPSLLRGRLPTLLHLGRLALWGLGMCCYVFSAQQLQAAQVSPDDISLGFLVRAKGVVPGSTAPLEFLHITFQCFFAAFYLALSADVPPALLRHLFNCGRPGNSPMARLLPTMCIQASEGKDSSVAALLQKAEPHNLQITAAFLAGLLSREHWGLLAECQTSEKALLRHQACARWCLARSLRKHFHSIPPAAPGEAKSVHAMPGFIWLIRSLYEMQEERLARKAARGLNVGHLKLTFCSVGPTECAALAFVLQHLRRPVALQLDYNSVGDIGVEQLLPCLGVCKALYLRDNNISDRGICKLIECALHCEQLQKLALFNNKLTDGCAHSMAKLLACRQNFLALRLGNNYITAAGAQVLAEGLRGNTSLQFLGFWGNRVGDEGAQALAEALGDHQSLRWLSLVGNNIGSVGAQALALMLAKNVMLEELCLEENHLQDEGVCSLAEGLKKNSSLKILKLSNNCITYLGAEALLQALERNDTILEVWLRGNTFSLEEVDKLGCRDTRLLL
# Assay: co-immunoprecipitation from co-transfected HEK293T cells
# Source text: The CARD motif functions as an effector domain that mediates specific homophilic interaction with downstream CARD-containing molecules (Hofmann et al., Trends Biochem. Sci. 22: 155-156 [1997]).
row,binding result,Binder
1,no binding,B1
2,no binding,B2
3,no binding,B3
4,no binding,B4
5,no binding,B5
6,no binding,B6
7,no binding,B7
8,no binding,B8
9,no binding,B9
10,no binding,B10

# From patent US20020127673A1 (REGENTS OF THE UNIVERSITY OF MICHIGAN, published 2002)
